Laboratory results: US20250262210A1 (TRUSTEES OF COLUMBIA UNIVERSITY IN THE CITY OF NEW YORK, published 2025)

Assays:
Assay in all cases: IP/MS, LZTR1 wild type-FLAG, U87
[1] = target: TRIM16 (human, UniProt O95361 1-564, limits assumed)
Procedure, shortened: (§1)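 Extracted peptides in 3% acetonitrile/0.1% formic acid ran on a 50 cm C18 column into an Orbitrap Fusion, with MaxQuant identification and spectral counting.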

[2] = target: T1, USP47 (human, UniProt Q96K76 1-1375, limits assumed)
T1 sequence (looked up): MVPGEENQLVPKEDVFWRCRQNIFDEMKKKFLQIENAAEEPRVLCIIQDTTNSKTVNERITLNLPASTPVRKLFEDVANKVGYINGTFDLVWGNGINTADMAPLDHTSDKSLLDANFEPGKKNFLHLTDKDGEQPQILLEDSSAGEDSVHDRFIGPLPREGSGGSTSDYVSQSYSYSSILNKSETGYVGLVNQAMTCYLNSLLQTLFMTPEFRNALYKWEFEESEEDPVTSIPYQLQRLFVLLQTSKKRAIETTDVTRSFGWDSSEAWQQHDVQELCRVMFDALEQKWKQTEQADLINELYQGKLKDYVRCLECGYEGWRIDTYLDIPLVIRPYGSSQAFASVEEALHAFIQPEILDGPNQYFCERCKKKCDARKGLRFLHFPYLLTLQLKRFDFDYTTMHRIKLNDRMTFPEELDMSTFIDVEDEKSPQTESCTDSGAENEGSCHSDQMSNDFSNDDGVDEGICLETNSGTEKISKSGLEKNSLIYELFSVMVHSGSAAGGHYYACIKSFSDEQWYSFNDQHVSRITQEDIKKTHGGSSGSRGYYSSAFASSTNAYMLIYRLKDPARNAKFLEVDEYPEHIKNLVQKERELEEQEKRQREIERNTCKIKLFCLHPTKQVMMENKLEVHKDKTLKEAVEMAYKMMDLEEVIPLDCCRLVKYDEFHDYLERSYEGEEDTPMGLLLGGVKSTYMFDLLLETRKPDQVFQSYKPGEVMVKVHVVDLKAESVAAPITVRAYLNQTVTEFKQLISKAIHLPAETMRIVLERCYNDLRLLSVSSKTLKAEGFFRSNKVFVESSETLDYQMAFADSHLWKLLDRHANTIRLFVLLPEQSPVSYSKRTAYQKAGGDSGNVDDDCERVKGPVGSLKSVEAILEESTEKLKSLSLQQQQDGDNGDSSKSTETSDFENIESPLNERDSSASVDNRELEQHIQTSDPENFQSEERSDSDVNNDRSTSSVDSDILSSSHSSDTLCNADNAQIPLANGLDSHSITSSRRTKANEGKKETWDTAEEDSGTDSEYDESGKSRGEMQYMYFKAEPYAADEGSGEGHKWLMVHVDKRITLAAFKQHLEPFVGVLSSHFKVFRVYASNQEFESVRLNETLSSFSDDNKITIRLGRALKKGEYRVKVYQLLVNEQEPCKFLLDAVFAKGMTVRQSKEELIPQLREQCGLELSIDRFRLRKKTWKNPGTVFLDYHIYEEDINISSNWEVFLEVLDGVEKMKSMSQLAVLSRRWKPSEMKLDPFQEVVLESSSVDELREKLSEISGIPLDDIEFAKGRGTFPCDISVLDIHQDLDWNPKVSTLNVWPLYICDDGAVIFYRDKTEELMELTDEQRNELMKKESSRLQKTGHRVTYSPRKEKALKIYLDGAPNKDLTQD
Procedure, shortened: as §1

[3] = target: SPG11 (human, UniProt Q96JI7 1-2443, limits assumed)
Procedure, shortened: as §1

Measured: binding result

SPG11, sequence (Q96JI7 whole entry): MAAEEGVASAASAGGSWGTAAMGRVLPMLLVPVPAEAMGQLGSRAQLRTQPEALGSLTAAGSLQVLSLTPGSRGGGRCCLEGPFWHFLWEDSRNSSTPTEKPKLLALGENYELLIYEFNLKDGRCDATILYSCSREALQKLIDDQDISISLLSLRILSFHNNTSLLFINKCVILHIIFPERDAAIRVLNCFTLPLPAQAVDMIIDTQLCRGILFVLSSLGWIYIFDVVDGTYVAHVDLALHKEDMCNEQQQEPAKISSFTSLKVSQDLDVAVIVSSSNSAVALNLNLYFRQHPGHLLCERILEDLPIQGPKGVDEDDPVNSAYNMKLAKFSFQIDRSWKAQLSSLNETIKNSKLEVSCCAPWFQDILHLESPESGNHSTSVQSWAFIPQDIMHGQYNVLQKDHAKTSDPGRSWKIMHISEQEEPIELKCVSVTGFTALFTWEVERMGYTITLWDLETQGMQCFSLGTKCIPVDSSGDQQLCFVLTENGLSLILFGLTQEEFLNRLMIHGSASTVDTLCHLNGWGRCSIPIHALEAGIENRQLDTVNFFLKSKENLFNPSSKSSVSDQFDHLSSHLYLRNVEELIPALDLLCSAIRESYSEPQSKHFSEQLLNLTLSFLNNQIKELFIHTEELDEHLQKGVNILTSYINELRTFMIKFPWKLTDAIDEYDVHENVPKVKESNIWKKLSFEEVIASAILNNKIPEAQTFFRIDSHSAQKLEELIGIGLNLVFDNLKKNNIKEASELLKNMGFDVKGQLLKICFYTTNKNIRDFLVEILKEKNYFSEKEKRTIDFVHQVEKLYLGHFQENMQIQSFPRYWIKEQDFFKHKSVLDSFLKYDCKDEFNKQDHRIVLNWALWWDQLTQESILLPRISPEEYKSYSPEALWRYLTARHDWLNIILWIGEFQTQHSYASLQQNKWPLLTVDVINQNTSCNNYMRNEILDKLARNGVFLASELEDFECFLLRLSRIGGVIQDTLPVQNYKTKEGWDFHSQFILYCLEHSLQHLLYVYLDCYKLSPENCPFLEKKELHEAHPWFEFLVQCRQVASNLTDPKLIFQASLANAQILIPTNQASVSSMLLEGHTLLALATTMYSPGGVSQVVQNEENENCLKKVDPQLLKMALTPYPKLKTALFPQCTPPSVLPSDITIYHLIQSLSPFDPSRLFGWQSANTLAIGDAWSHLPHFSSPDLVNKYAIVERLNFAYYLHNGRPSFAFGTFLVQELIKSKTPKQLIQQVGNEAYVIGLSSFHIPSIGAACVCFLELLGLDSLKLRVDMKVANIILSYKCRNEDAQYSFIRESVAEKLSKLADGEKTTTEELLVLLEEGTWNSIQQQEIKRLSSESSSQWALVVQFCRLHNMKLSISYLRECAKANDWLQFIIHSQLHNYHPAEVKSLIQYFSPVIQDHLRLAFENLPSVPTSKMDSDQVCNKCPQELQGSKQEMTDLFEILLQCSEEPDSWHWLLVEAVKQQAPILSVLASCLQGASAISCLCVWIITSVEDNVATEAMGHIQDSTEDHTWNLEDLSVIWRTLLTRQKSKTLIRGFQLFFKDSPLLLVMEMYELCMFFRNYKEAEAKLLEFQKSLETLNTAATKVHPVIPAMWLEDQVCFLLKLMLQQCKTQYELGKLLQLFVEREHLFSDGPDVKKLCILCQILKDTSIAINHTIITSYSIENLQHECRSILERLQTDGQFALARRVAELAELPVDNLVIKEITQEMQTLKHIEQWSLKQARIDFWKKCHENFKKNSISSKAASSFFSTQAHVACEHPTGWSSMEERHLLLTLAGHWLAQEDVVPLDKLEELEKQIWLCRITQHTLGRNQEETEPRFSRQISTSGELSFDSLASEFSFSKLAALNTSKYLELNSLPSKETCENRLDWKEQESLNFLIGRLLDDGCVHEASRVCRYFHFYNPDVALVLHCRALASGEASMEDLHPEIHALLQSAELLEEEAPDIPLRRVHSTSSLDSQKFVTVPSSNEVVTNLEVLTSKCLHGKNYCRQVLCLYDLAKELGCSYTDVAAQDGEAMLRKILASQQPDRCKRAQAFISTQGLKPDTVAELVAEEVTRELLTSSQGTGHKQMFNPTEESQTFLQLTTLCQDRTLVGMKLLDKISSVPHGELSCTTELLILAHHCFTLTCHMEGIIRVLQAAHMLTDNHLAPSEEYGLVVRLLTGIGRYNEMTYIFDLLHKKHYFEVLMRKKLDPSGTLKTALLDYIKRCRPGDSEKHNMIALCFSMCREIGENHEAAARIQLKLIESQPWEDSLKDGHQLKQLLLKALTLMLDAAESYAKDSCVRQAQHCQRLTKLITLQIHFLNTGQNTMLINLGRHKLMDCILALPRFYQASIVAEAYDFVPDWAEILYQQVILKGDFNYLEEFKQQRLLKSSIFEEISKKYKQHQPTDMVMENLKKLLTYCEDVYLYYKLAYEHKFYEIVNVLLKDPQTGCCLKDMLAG

B1: LZTR1-FLAG (other, human, UniProt Q8N653 1-840, looked up)
chain: MAGPGSTGGQIGAAALAGGARSKVAPSVDFDHSCSDSVEYLTLNFGPFETVHRWRRLPPCDEFVGARRSKHTVVAYKDAIYVFGGDNGKTMLNDLLRFDVKDCSWCRAFTTGTPPAPRYHHSAVVYGSSMFVFGGYTGDIYSNSNLKNKNDLFEYKFATGQWTEWKIEGRLPVARSAHGATVYSDKLWIFAGYDGNARLNDMWTIGLQDRELTCWEEVAQSGEIPPSCCNFPVAVCRDKMFVFSGQSGAKITNNLFQFEFKDKTWTRIPTEHLLRGSPPPPQRRYGHTMVAFDRHLYVFGGAADNTLPNELHCYDVDFQTWEVVQPSSDSEVGGAEVPERACASEEVPTLTYEERVGFKKSRDVFGLDFGTTSAKQPTQPASELPSGRLFHAAAVISDAMYIFGGTVDNNIRSGEMYRFQFSCYPKCTLHEDYGRLWESRQFCDVEFVLGEKEECVQGHVAIVTARSRWLRRKITQARERLAQKLEQEAAPVPREAPGVAAGGARPPLLHVAIREAEARPFEVLMQFLYTDKIKYPRKGHVEDVLLIMDVYKLALSFQLCRLEQLCRQYIEASVDLQNVLVVCESAARLQLSQLKEHCLNFVVKESHFNQVIMMKEFERLSSPLIVEIVRRKQQPPPRTPLDQPVDIGTSLIQDMKAYLEGAGAEFCDITLLLDGHPRPAHKAILAARSSYFEAMFRSFMPEDGQVNISIGEMVPSRQAFESMLRYIYYGEVNMPPEDSLYLFAAPYYYGFYNNRLQAYCKQNLEMNVTVQNVLQILEAADKTQALDMKRHCLHIIVHQFTKVSKLPTLRSLSQQLLLDIIDSLASHISDKQCAELGADI
notes: Expressed in HEK 293T, HeLa or U87 cells; used as cell lysate; also called LZTR1 wild type-FLAG; LZTR1 WT; not shown: FLAG tag at the C-terminus
binds: all assays above
